Measurements from patent publication US7005283B2, “Cytochrome P450 oxygenases and their uses” (Washington State University Research Foundation, priority 1999, dated 2006).

Legend:
[1] = In vivo assay of yeast cells expressing recombinant oxygenases, radio-HPLC, substrate taxadien-5α-ol; assay type: cell-based, Saccharomyces cerevisiae; settings: assayed with Taxadien5αol; graded symbols, key not given
Description: (§1) Transformed yeast cells that fimctionally express a recombinant cytochrome P450 gene from Taxus (by CO-difference spectrum) can be tested in vivo for their ability to oxygenate (hydroxylate or epoxidize) taxoid substrates fed exogenously to the cells, thereby eliminating the need for microsome isolation for preliminary in vitro assays.
(§2) Accordingly, several clones of the available full-length clones were expressed in induced yeast host cells.
(§3) Isolated transformants for each full-length cytochrome P450 clone shown to express a functional enzyme by CO-difference spectrum (ten clones) were grown to stationary phase in 2 mL SGI medium at 30° C. and used to inoculate a 10-mL expression culture (in YPL medium). Approximately 8 hours after induction, cells were harvested by centrifugation (10 minutes at 1500 rpm), and the pellet was resuspended in 2 mL of fresh YPL medium.
(§4) To eliminate additional complication and uncertainty associated with microsome isolations for in vitro assays, 10^6 dpm of [20-^3H3]taxa-4(5),11(12)-diene (16 Ci/mol) or [20-^3H2]taxa-4(20),11(12)-diene-5-α-ol (4.0 Ci/mol), or other taxoid substrate were added directly to the cell suspension to assay conversion in vivo. After 12 hours of incubation at 30° C. with agitation (250 rpm), the mixture was treated for 15 minutes in a sonication bath and extracted 3 times with 2 mL diethyl ether to insure isolation of the biosynthetic products. These ether extracts, containing residual substrate and derived product(s), were concentrated to dryness, resuspended in 200 μL of CH3CN, and filtered. These samples were analyzed by radio-HPLC (Hefner et al., Chemistry and Biology 3:479–489, 1996) using a 4.6 mm i.d.×250 mm column of Econosil C18, 5 μ (Alltech, Deerfield, Ill.) with a gradient of CH3CN in H2O from 0% to 85% (10 minutes at 1 mL/minute), then to 100% CH3CN over 40 minutes.

[2] = assay type: binding, Saccharomyces cerevisiae
Description: CO-sensor of the 19 full-length cytochrome P450 clones from Taxus, thus far obtained, ten have yielded detectable CO-difference spectra (Table 2). […] These alternative expression systems for cytochrome P450 genes include the yeast Pichia pastoris, for which expression vectors and hosts are commercially available (Invitrogen, Carlsbad, Calif.), as well as established E. coli and baculovirus-insect cell systems for which general expression procedures have been described (Barnes, Methods Enzymol. 272:1–14, 1996;Gonzalez et al., Methods Enzymol. 206:93–99, 1991;Lee et al., Methods Enzymol. 272:86–98, 1996;and Lupien et al., Arch. Biochem. Biophys. 368:181–192, 1999).
Appropriate restriction sites were introduced by standard PCR methods (Innis et al., PCR Protocols: A Guide to Methods and Applications, Academic Press, San Diego, Calif., 1990) immediately upstream of the ATG start codon and downstream of the stop codon of all full-length cytochrome P450 clones. These modified amplicons were gel-purified, digested with the corresponding restriction enzymes, and then ligated into the expression vector pYeDP60. The vector/insert junctions were sequenced to ensure that no errors had been introduced by the PCR construction. Verified clones were transformed into yeast using the lithium acetate method (Ito et al., J. Bacteriol. 153:163–168, 1983). Isolated transformants were grown to stationary phase in SGI medium (Pompon et al., Methods Enzymol. 272:51–64, 1996), and used as inocula for a large-scale expression culture grown in YPL medium (Pompon et al., Methods Enzymol. 272:51–64, 1996). Approximately 24 hours after induction of cytochrome P450 expression with galactose (to 10% final concentration), a portion of the yeast cell culture was harvested by centrifugation. One-half of the culture was treated with carbon monoxide, and the cytochrome P450 CO-difference spectrum was recorded directly (using untreated cells as a control) by spectrophotometry (Omura and Sato, J. Biol. Chem. 239:2370–2378, 1964).

[3] = In vivo assay of yeast cells expressing recombinant oxygenases, radio-HPLC, substrate taxadiene; assay type: cell-based, Saccharomyces cerevisiae; settings: assayed with Taxadiene; graded symbols, key not given
Description: as §1, §2, §3, §4

B1: clone F55: Taxus cuspidata cytochrome P450 oxygenase, full-length clone, SEQ ID NO: 52 (nt) / 65 (aa) (protein, listed as Taxus cuspidata)
chain: METKFGQLMQLEFLPFILTPILGALVLLHLFRHRNRSSVKLPPGKLGFPVIGETIQFLRALRSQTPQKFFDDRVQKFGGVFKTSLIGNPLVVMCGPAGNRLVLSNEDKLVQLEAPNSLMKLMGQDSLLAKRQEDHRTLRAALARFLGPQALXNYMTKISSRTEHHMNEKWKGKDEVRTLPLIRELIFSNASSLFFDINDEHQQERLHHLLEAVVVGSMSIPLDFPGTRLRKALQARSKLDEILSSLIKSRRKDLVSGIASDDQDLLSVLLTFKDERGNPLTDKEILDNFSLLLHASYDTTVSPMVLTLKLLSSNPECYEKVVQEQLGIVANKRIGEEISWKDLKAMKYTWQVVQETLRMFPPLFGSFRKAMVDIDYDGYTIPKGWMILWTTYGTHLREEYFNEPLKFRPSRFEEDGRVTPYTFIPFGGGARTCPGWEFSKTEILLFIHHFVRTFSSYLPVDSNEKISADPFPPLPANGFSIKLSADPFPPLPANGFSIKLFPRSQSN
modifications: not fully specified; (1)..(507) “Xaa” equals any peptide
[1]
  product identified HPLC peak: No
[2]
  CO diff. spec.: −
[3]
  product identified HPLC peak: No

B2: clone F10: Taxus cuspidata cytochrome P450, outlying full-length clone, SEQ ID NO: 55 (nt) / 68 (aa) (protein, listed as Taxus cuspidata)
chain: MAFEAATVILFTLAALLLVVIQRRRIRRHKLQGKVKAPQPPSWPVIGNLHLLTQKVPIHRILSSLSESYGPIMHLQLGLRPALVIASSDLAKECFTTNDKAFASRPRLSAGKHVGYDYKIFSMAPYGSYWRNLRKMCTIQILSATRIDSFRHIRVEEVSALIRSLFDSCQREDTPVNMKARLSDLTFSIILRMVANKKLSGPVYSEEYEEADHFNQMIKQSVFLLGAFEVGDFLPFLKWLDLQGFIAAMKKLQQKRDVFMQKLVIDHREKRGRVDANAQDLIDVLISATDNHEIQSDSNDDVVKATALTMLNAGTDTSSVTIEWALAALMQHPHILSKAQQELDTHIGRSRLLEEADLHELKYLQAIVKETLRLYPAAPLLVPHEAIEDCTVGGYHVSAGTRLIVNAWAIHRDPAVWERPTVFDPERFLKSGKEVDVKGREFELIPFGSGRRMCPGMSLALSVVTYTLGRLLQSFEWSVPEGMIIDMTEGLGLTMPKAVPLETIIKPRLPFHLY
[1]
  product identified HPLC peak: No
[2]
  CO diff. spec.: +
[3]
  product identified HPLC peak: No

B3: clone F19: Taxus cuspidata cytochrome P450 oxygenase, full-length clone, SEQ ID NO: 50 (nt) / 63 (aa) (protein, listed as Taxus cuspidata)
chain: MDAFNILKGPAAKLNGVVQLGSYTDRILSITVVAFITILLLLMLRWKSQSSVKLPPGNFGFPLIGETLQLLRAFRSNTTQQFFDERQKKFGCVFKTSLVGERTVVLCGPSGNRLVLANQNKVVESSWPSAFIKLIGEDSIANTNGEKHRILRAALLRYLGPGSLQNYVGKMRSEIEHHINEKWKGKDEVKVLDLVRKNVFSVATALFFGVNDEERKRIRPPSILRKLHFAGSFSIPLDFPGTSYRRALEARLKLDKILSSLIERRRSDLRSGLASGNEDLVSVLLTFKDEGGNPLTDKEILDNFSGLLHASYDTTTSALTLTFKLMSSSAECYDKVVQEQLRIVSNKKEGEEISLKDLKDMKYTWQVVQETLRMFPPLFGSFRKTIADIQYDGYTIPKGWKVLWATYTTHGRDEYFSEPQKFRPSRFEEGGKHVAPYTFLPFEGGERTCPGYEFSKTHILLFIHQFVKTFTGYIPLDPNESISANPLPPLPANGFPVKLFQRS
[1]
  product identified HPLC peak: No
[2]
  CO diff. spec.: −
[3]
  product identified HPLC peak: No

B4: clone F23: Taxus cuspidata cytochrome P450 oxygenase, full-length clone, SEQ ID NO: 84 (nt) / 90 (aa) (protein, listed as Taxus cuspidata)
chain: MELWNMFLPWISIATATSLTVGMASAFAIIYAPLLLSFLRLKTARRNMPPIPPGSMGMPFWGESLGYLGSWNNQSNPDVWYDTRKAKHGKIFTTHILGSPTVVMLGPDANRFILINENKLFLNSWPKSLNALIGKHALITSQGAEHKRMRRIIHSVLGPRNPETSVGRFEGLVLHHLDSDWHGGQIIQAYRQVKDMALCLAADFFMGLKPGKELETFRRHFSDFSAGLLSHPLDLPWTVFGKAKRARAAMVTQIFSQIRLHRTSMHKSGEEGGNFLDMVLGSQEKGGDLRLSEEEIADNLMGLLTGGQDTTASALATILKHLSLSPHLLQRLRKECEKLRDNKEAGGPLTWSEIKSVGYLHNVISEGLRMVAPINGGFKKAKVDVVYGGYTIPKGWKVHYSVRQTNNKEEYFPSPERFDPDRFNERHEPFSFIPFGQGNRMCPGNEFARLEMELFLYHLVLRYDWELMEADERTNMYFIPHPVHSLPLLLKHVPPT
[1]
  product identified HPLC peak: No
[2]
  CO diff. spec.: −
[3]
  product identified HPLC peak: No

B5: clone F56: Taxus cuspidata cytochrome P450 oxygenase, full-length clone, SEQ ID NO: 49 (nt) / 62 (aa) (protein, listed as Taxus cuspidata)
chain: MDTLIQIQSSPDFLSFTLTAFLGVVVLLIFRYKHRSALKLPPGNLGLPFIGETITFASQPPQKFLNERGKKFGPVFKTSLIGHPTVVLCGSSGNRFLLSNEEKLVRMSLPNSYMKLLGQDSLLGKTGQEHRIVRTALGRFLGPQELQNHVAKMSSDIQHHINQKWKGNDEVKVLPLIRNLVFSIATSLFFGINDEHQQERLHLLLETIVMGAVCIPLAFPGSGFRKALQARSELDGILISLMKIRRSDLRSGAASSNQDLLSVLLTFKDERGNPLTDKEILDNFSVLLHGLYDTTISPLTLIFKLMSSNTECYENVVQEQLEILSHREKGEEIGWKDLKSMKYTWQAIQETLRMFPPVYGNFRKALTDIHYDGYTIPKGWRVLCSPFTTHSNEEYFNEPDEFRPSRFEGQGKNVPSYTFIPFGGGLRICPGWEFAKTEMLLFIHYFVKTFSSYVPVDPNEKISADPLASFPVNGFSVKLFPRS
[1]
  product identified HPLC peak: No
[2]
  CO diff. spec.: −
[3]
  product identified HPLC peak: No

B6: clone F42: Taxus cuspidata cytochrome P450 oxygenase, full-length clone, SEQ ID NO: 45 (nt) / 58 (aa) (protein, listed as Taxus cuspidata)
chain: MDSFSFLKSMEAKFGQVIHRDQSSSTALLSLAFTAAVAIFLVLLFRFKSRPSTNFPPGNFGFPFIGETIQFLRALRSESPHMFFDERLKKFGRVFKTSLTGHPTAVFCGPAGNRFIYSNEHKLVQSSGPNSFVKLVGQQSIVTKTGEEHRIFLGVLNEFLGPHALQSYTPKMSSKIQENINKHWKGKDEVNMLPSIRQLVFSISSSLFFDINDEDQQEQLKTLLETILVGTLSVPLDIPGSNFRKALRARSKLDEILSRLIESRRKDMRSGIASTSKNLLSVLLAFKDERGNPLTDTEILDNFSFMLHASYDTTVSPTVCIFKLLSANPECYEKVVQEQLGILGNKKDGEEMCWNDLKAMKYTWQAAQETMRLFPPAFGSFRKVIADIHHDGYIIPKGWKAMVTNYSTSRKEEYFDEPDNFKPSRFGDGKYVAPYTFLPFGAGIRICPGWEFAKLEMLLFIHHFVKNFSGYLPLDTKEKISGDPFPPLPKNGFPIKLFPRT
[1]
  product identified HPLC peak: No
[2]
  CO diff. spec.: −
[3]
  product identified HPLC peak: No
